Source: article PMC5700378

Molecular target: PrP^Sc enriched from elk brain infected with chronic wasting disease (elk) (UniProt P67986)
Assay: SPR

Chain of UniProt P67986 (P67986 25-233 limits assumed): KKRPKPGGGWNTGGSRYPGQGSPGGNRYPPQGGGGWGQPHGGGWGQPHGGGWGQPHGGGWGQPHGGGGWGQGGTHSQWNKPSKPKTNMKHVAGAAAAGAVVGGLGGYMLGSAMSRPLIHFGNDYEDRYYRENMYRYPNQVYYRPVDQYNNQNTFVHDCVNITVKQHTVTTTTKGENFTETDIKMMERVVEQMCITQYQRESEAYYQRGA

“purified full-length CD21 (from UniProt P20023 21-1033) (receptor)” showed a Kd of 16 nM.
